The target of data set [1] is T1, U2AF65 1,2L (human, UniProt P26368 141-342). The data set can be described thus: fluorescence anisotropy; Anisotropy: 100 mM NaCl, 15 mM HEPES pH 6.8, 0.2 mM TCEP, 0.1 U/ul Superase-In, 30 nM RNA, 23 C; smFRET: 50 mM HEPES pH 7.4, 100 mM NaCl, room temperature. On the technique in general: In fluorescence polarisation assays a small probe gives low polarisation when free and higher when bound to something large.

Data set [2] deals with flU2AF65;U2AF35-UHM (human;human, UniProt P26368;Q01081 1-475;43-146, |). Described as above.
Data set [3] deals with T2, full-length human U2AF^65 (residues 1–475) (human, UniProt P26368-1 1-475).
T2 construct: U2AF65 (U2AF2), human, full length, residues 1-475; also called flU2AF^65; U2AF2; source: expressed as a GST fusion protein, purified (GST cleavage, SP-HiTrap ion exchange)
As to the kind of experiment: SEC; U2AF65 combined with slight excess U2AF35-UHM (ratio 1:1.2), dialysed overnight, heterodimer purified on Superdex-200 prep-grade in 150 mM NaCl, 25 mM HEPES pH 6.8, 0.2 mM TCEP. The note with it: both partners purified. For orientation: SEC sorts molecules by how far they enter the pores of the column.

The target of data set [4] is T3, U2AF65 1,2L FRET (human, UniProt P26368 113-343, A181C;C305A;Q324C). As to the kind of experiment: smFRET; slide-tethered protein, 10 uM RNA; Anisotropy: 100 mM NaCl, 15 mM HEPES pH 6.8, 0.2 mM TCEP, 0.1 U/ul Superase-In, 30 nM RNA, 23 C; smFRET: 50 mM HEPES pH 7.4, 100 mM NaCl, room temperature.
For data set [5], the target named is dU2AF65 1,2 (human, UniProt P26368 148-336, del238-257). The data set can be described thus: fluorescence anisotropy; Anisotropy: 100 mM NaCl, 15 mM HEPES pH 6.8, 0.2 mM TCEP, 0.1 U/ul Superase-In, 30 nM RNA, 23 C; smFRET: 50 mM HEPES pH 7.4, 100 mM NaCl, room temperature.
The target of data set [6] is U2AF65 1,2L NLALA (human, UniProt P26368 141-342, S251N;T252L;V253A;V254L;P255A). The description is as above.
The target of data set [7] is U2AF65 1,2L 5Gly (human, UniProt P26368 141-342, S251G;T252G;V253G;V254G;P255G). The data set is described as above.
Data set [8] has as its target U2AF65 1,2L V254P (human, UniProt P26368 141-342, V254P). Described as above.
In data set [9] the target is U2AF65 1,2L 3Mut (human, UniProt P26368 141-342, Q147A;R227A;V254P). The data set is described as above.
Data set [10] has as its target U2AF65 1,2L R227A (human, UniProt P26368 141-342, R227A). Described as above.
For data set [11], the target named is dU2AF65 1,2L (human, UniProt P26368 141-342, del238-257). The description is as above.
Data set [12] has as its target U2AF65 1,2L Q147A (human, UniProt P26368 141-342, Q147A). The data set is described as above.
The target in data set [13] is U2AF65 1,2L 3Gly (human, UniProt P26368 141-342, V249G;V250G;V254G). The data set is described as above.
Data set [14] concerns the target U2AF65 1,2L 12Gly (human, UniProt P26368 141-342, M144G;L235G;M238G;V244G;V246G;V249G;V250G;S251G;T252G;V253G;V254G;P255G). The data set is described as above.
Data set [15] addresses T3, U2AF65 1,2L FRET. As to the kind of experiment: smFRET; slide-tethered protein, 5 uM RNA; Anisotropy: 100 mM NaCl, 15 mM HEPES pH 6.8, 0.2 mM TCEP, 0.1 U/ul Superase-In, 30 nM RNA, 23 C; smFRET: 50 mM HEPES pH 7.4, 100 mM NaCl, room temperature.
For data set [16], the target named is T1, U2AF65 1,2L. The data set can be described thus: fluorescence anisotropy; Anisotropy: 100 mM NaCl, 15 mM HEPES pH 6.8, 0.2 mM TCEP, 0.1 U/ul Superase-In, 30 nM RNA, 23 C; smFRET: 50 mM HEPES pH 7.4, 100 mM NaCl, room temperature. This is another data set of the same source.

The results in this text go back to publication PMC4786784 (Nature Communications, 2016).

The term Kd denotes the concentration at which binding is half-saturated. Read a low Kd as tighter binding.

Chain of flU2AF65;U2AF35-UHM (P26368 whole entry, the tested form may be a part, one chain of several): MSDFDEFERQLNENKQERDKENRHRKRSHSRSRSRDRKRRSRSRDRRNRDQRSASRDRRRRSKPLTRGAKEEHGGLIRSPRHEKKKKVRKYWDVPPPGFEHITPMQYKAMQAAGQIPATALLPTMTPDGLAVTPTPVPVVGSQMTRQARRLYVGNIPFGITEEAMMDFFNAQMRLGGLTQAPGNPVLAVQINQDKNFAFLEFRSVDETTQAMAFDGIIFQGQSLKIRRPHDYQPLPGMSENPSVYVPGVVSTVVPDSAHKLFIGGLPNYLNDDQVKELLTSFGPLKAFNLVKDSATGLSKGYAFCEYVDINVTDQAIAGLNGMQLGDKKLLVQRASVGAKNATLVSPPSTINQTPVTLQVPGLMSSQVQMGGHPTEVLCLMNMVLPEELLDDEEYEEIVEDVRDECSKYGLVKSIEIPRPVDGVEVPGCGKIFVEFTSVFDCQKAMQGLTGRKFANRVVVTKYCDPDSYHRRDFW
T1 sequence (P26368 141-342, one chain of several): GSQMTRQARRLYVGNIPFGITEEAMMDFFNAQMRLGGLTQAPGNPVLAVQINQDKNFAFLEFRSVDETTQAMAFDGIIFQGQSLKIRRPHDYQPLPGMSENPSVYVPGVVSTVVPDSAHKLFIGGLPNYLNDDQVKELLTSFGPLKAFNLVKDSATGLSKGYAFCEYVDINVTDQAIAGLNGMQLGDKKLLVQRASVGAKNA
T3 sequence (P26368 113-343 A181C/C305A/Q324C, one chain of several): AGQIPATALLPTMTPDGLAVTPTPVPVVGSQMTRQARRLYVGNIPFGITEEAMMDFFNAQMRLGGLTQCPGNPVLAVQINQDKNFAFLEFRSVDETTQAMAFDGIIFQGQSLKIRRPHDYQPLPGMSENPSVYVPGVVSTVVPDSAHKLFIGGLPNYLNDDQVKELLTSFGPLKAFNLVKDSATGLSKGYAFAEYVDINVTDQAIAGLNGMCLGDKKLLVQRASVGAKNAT
Chain of U2AF65 1,2L 5Gly (P26368 141-342 S251G/T252G/V253G/V254G/P255G, one chain of several): as the sequence (P26368 141-342, one chain of several) above, with S111G, T112G, V113G, V114G, P115G counted along it
Chain of U2AF65 1,2L 3Gly (P26368 141-342 V249G/V250G/V254G, one chain of several): as the sequence (P26368 141-342, one chain of several) above, with V109G, V110G, V114G counted along it
Chain of dU2AF65 1,2L (P26368 other isoform, or with tags, fused parts or gaps del238-257): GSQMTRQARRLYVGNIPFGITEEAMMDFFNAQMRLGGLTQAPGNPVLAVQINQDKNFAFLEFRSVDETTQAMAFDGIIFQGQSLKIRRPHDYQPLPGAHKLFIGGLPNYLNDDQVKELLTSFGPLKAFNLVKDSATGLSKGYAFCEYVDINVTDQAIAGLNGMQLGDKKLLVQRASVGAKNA
T2 sequence (P26368 whole entry, the tested form may be a part): as the sequence (P26368 whole entry, the tested form may be a part, one chain of several) above
Chain of U2AF65 1,2L 3Mut (P26368 141-342 Q147A/R227A/V254P, one chain of several): as the sequence (P26368 141-342, one chain of several) above, with Q7A, R87A, V114P counted along it
Chain of U2AF65 1,2L V254P (P26368 141-342 V254P, one chain of several): as the sequence (P26368 141-342, one chain of several) above, with V114P counted along it
Chain of U2AF65 1,2L 12Gly (P26368 141-342 M144G/L235G/M238G/V244G/V246G/V249G/V250G/S251G/T252G/V253G/V254G/P255G, one chain of several): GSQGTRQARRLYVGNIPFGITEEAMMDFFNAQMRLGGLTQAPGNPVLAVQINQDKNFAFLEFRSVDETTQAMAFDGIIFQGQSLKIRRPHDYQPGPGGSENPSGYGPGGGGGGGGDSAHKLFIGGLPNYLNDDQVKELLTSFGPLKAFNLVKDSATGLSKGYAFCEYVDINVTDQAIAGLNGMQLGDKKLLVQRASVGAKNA
Chain of U2AF65 1,2L R227A (P26368 141-342 R227A, one chain of several): as the sequence (P26368 141-342, one chain of several) above, with R87A counted along it
Chain of U2AF65 1,2L Q147A (P26368 141-342 Q147A, one chain of several): as the sequence (P26368 141-342, one chain of several) above, with Q7A counted along it
Chain of dU2AF65 1,2 (P26368 other isoform, or with tags, fused parts or gaps del238-257): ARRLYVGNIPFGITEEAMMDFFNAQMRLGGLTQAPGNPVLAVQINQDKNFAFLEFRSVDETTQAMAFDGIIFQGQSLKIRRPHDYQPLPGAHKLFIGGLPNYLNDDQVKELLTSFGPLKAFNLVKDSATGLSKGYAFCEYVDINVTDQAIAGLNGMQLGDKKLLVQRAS
Chain of U2AF65 1,2L NLALA (P26368 141-342 S251N/T252L/V253A/V254L/P255A, one chain of several): as the sequence (P26368 141-342, one chain of several) above, with S111N, T112L, V113A, V114L, P115A counted along it

B1: 5'-4rU (ssRNA)
RNA: CCUUUUCCCCCCC
In the case of B1, the Kd in data set [1] was 31 ± 3 nM; in data set [2], 41 ± 2 nM.

B2: U2AF^35-UHM (U2AF homology motif; residues 43–146) (domain or fragment, UniProt Q01081-1 43-146, looked up)
chain: SQTIALLNIYRNPQNSSQSADGLRCAVSDVEMQEHYDEFFEEVFTEMEEKYGEVEEMNVCDNLGDHLVGNVYVKFRREEDAEKAVIDLNNRWFNGQPIHAELSP
notes: also called heterodimerization domain of the U2AF^35 subunit; U2AF1; source: expressed as a GST fusion protein, purified (GST cleavage, Q-HiTrap ion exchange)
For B2, the binding result in [3] was “binds”.

B3: rArA-interrupted Py tract (ssRNA)
RNA: CUUUUUAAUUUCCA
On to B3, for which the binding result in data set [4] is “binds”.

B4: AdML Py tract 13mer (ssRNA)
RNA: CCCUUUUUUUUCC
Take B4: the Kd was 5000 ± 100 nM in data set [5]; 45 ± 3 nM in data set [6]; 61 ± 3 nM in data set [7]; 137 ± 10 nM in [8]; 30 ± 3 nM in data set [2]; 5630 ± 70 nM in [9]. In addition, the Kd in data set [10] was determined as 166 ± 2 nM; in data set [11], 123 ± 5 nM; in data set [12], 171 ± 21 nM; in data set [13] it was 47 ± 4 nM; in [14], 88 ± 21 nM.

B5: 3'-4rU (ssRNA)
RNA: CCCCCCCUUUUCC
In the case of B5, the results for the Kd in [1] and in [2] were 417 ± 10 nM and 414 ± 12 nM, respectively.

B6: AdML Py tract 12mer (ssRNA)
RNA: CCUUUUUUUUCC
B6: the binding result in data set [15] is on record as “binds”.

B7: AdML Py tract rArA mutant (ssRNA)
RNA: CUUUUUAAUUUCC
Regarding B7, in [16], the binding signal is ~5 fold lower affinity than AdML.
